Experimental data taken from US20040172671A1, “Transgenic plants protected against parasitic plants” (priority 2001, published 2004).

Columns and labels:
[1] = tested on: Orobanche aegyptiaca seeds; test: Petri dish assay: effect of SLP on O. aegyptiaca seed germination and radicle elongation; assay type: in vivo
Protocol: The effect of the direct application of the lytic toxin Sarcotoxin IA (SLP) to seeds of the parasitic plant O. aegyptiaca was assayed. SLP was obtained by production in S. cerevisiae, and applied to seeds during both preconditioning and germination stages as follows: Yeast strain Y426-MATa yeast cells transformed with a yeast shuttle vector-pFL61 to express the sarcotoxin IA were cultured in -URA liquid media at 30° C. for 72 h as described in Aly et al. (1999). The cultures were then centrifuged for 5 min at 4000 g and the supernatant collected for SLP assay. Quantitative evaluation of the SLP concentration present in the growth media was obtained by Western blot analysis. The effect of SLP on O. aegyptiaca seeds was determined in a Petri dish assay. Parasite seeds were surface-sterilized, dispersed on Whatman GF/A glass-fiber (0.7 cm diam.), covered with the same filter, and placed in a Petri dish. […] After incubation in dark at 26° C. for 7 days, seeds were rated for radicles damage.

[2] = tested on: several bacteria, including plant pathogenic bacteria; details: SLP secreted from yeast cells (Aly et al, 1999); cited from earlier work
[3] = SLP 10 μM applied at germination (three days after GR24)
[4] = SLP 20 μM applied at germination
[5] = SLP 20 μM applied at preconditioning
[6] = SLP 30 μM applied at germination
[7] = SLP 30 μM applied at preconditioning
[8] = SLP 40 μM applied at germination
[9] = SLP 40 μM applied at preconditioning

B1: sarcotoxin IA (protein, listed as Sarcophaga peregrina)
chain: MNFQNIFIFVALILAVFAGQSQAGWLKKIGKKIERVGQHTRDATIQGLGIAQQAANVAATARG
Gemination (% of control) [1, 3]: 80 ± 6 % of control | Radicle length (% of control) [1, 3]: 65 ± 5 % of control | Radicle length (% of control) ([1]; SLP 10 μM applied at preconditioning (mixed with GR24)): 65 ± 6 % of control | Gemination (% of control) ([1]; SLP 10 μM applied at preconditioning (mixed with GR24), 7 days, 26° C., dark): 76 ± 3 % of control | Gemination (% of control) [1, 4]: 76 ± 8 % of control | Radicle length (% of control) [1, 4]: 47 ± 3 % of control | Gemination (% of control) [1, 5]: 69 ± 6 % of control | Radicle length (% of control) [1, 5]: 52 ± 2 % of control | Gemination (% of control) [1, 6]: 43 ± 7 % of control | Radicle length (% of control) [1, 6]: 33 ± 4 % of control | Gemination (% of control) [1, 7]: 6 ± 1 % of control | Radicle length (% of control) [1, 7]: 12 ± 8 % of control | Gemination (% of control) [1, 8]: 36 ± 2 % of control | Radicle length (% of control) [1, 8]: 4 ± 1 % of control | Gemination (% of control) [1, 9]: 0 % of control | Radicle length (% of control) [1, 9]: 0 % of control | radicle elongation and seed germination of the parasite ([1]; presence of SLP, in words): significantly reduced | cytotoxic effect against bacteria [2]: potent cytotoxic effect
